Our source for the IC50, pseudovirus neutralization values is patent publication US20190077849A1.

Values joined by “and” are separate entries in the source; they are usually repeats but may differ in a detail not shown here. Equal values may be shown once.

Test in all cases: cell-based or functional assay
The target in assay [1] is HIV-1 Env of 6095.V1.C10.SG3 pseudovirus (clade ACD) (HIV-1).
In assay [2] the target is HIV-1 Env of 6101.10.SG3 pseudovirus (clade B) (HIV-1).
Assay [3] addresses HIV-1 Env of CNE31.SG3 pseudovirus (clade C) (HIV-1).
Assay [4] has as its target HIV-1 Env of KER2008.12.SG3 pseudovirus (clade A) (HIV-1).
The target of assay [5] is HIV-1 Env of PVO.04.SG3 pseudovirus (clade B) (HIV-1).
Assay [6] addresses HIV-1 Env of TH966.8.SG3 pseudovirus (clade AE) (HIV-1).
Assay [7] concerns the target HIV-1 Env of YU2.DG.SG3 pseudovirus (clade B) (HIV-1) (UniProt P35961).
In assay [8] the target is HIV-1 Env of ZM106.9.SG3 pseudovirus (clade C) (HIV-1).
Assay [9] has as its target HIV-1 Env of ZM215.8.SG3 pseudovirus (clade C) (HIV-1).

10E8v4 VL Y32A (antibody): the IC50, pseudovirus neutralization is 0.409 µg/mL in assay [1]; over 50 µg/mL in [2]; over 50 µg/mL in assay [3]; over 50 µg/mL in assay [4]; over 50 µg/mL in [5]; 3.53 µg/mL in assay [6]. Moreover, the IC50, pseudovirus neutralization in assay [7] was over 50 µg/mL; in assay [8], over 50 µg/mL; in [9], 11.7 µg/mL.
Take 10E8v4 VL Y32V (antibody): the IC50, pseudovirus neutralization in assay [1] was 0.558 µg/mL; in assay [2], over 50 µg/mL; in assay [3], over 50 µg/mL; in [4] it was over 50 µg/mL; in [5], over 50 µg/mL; in assay [6], 4.96 µg/mL. The values for the IC50, pseudovirus neutralization in [7], in assay [8] and in assay [9] were over 50 µg/mL, over 50 µg/mL and 28.2 µg/mL, respectively.
On to 10E8v4 VL Y32N (antibody), for which the IC50, pseudovirus neutralization was 2.92 µg/mL in [1]; over 50 µg/mL in [2]; over 50 µg/mL in assay [3]; over 50 µg/mL in assay [4]; over 50 µg/mL in [5]; over 50 µg/mL in assay [6]. In addition, the IC50, pseudovirus neutralization in assay [7], in assay [8] and in assay [9] was over 50 µg/mL throughout.
Consider 10E8v4 VL Y32I (antibody), for which the IC50, pseudovirus neutralization in assay [1] is 1.3 µg/mL; in assay [2], over 50 µg/mL; in [3] it was over 50 µg/mL; in assay [4], over 50 µg/mL; in assay [5], over 50 µg/mL; in [6], 21.4 µg/mL. In addition, the IC50, pseudovirus neutralization in [7], in [8] and in assay [9] was over 50 µg/mL in each case.
For the substance 10E8v4 VL Y32M (antibody), the IC50, pseudovirus neutralization was 1.03 µg/mL in [1]; over 50 µg/mL in assay [2]; over 50 µg/mL in assay [3]; over 50 µg/mL in assay [4]; over 50 µg/mL in assay [5]; 29.8 µg/mL in assay [6]. In addition, the IC50, pseudovirus neutralization in [7], in [8] and in assay [9] was over 50 µg/mL in each case.
On to 10E8v4 VL Y32R (antibody), for which the IC50, pseudovirus neutralization was 0.152 µg/mL in assay [1]; over 50 µg/mL in [2]; over 50 µg/mL in [3]; over 50 µg/mL in assay [4]; over 50 µg/mL in assay [5]; 4.08 µg/mL in assay [6]. Also, the IC50, pseudovirus neutralization in assay [7] is over 50 µg/mL; in assay [8] it was over 50 µg/mL; in assay [9], 7.52 µg/mL.
Consider 10E8v4 VL Y32P (antibody), for which the IC50, pseudovirus neutralization is 3.2 µg/mL in [1]; over 50 µg/mL in [2]; over 50 µg/mL in assay [3]; over 50 µg/mL in assay [4]; over 50 µg/mL in assay [5]; over 50 µg/mL in assay [6]. The IC50, pseudovirus neutralization in assay [7], in [8] and in [9] was over 50 µg/mL in each case.
Take 10E8v4 VL Y32T (antibody): the IC50, pseudovirus neutralization in assay [1] was 0.145 µg/mL; in assay [2], over 50 µg/mL; in assay [3], over 50 µg/mL; in assay [4], over 50 µg/mL; in [5], over 50 µg/mL; in assay [6], 3.76 µg/mL. Further, the IC50, pseudovirus neutralization in assay [7] was 43.5 µg/mL; in [8], over 50 µg/mL; in assay [9], 9.25 µg/mL.
10E8v4 VL Y32L (antibody): the IC50, pseudovirus neutralization in assay [1] is 0.593 µg/mL; in assay [2] it was 38.6 µg/mL; in [3] it was over 50 µg/mL; in assay [4], over 50 µg/mL; in assay [5] it was over 50 µg/mL; in assay [6] it was 4.26 µg/mL. For the same substance, the IC50, pseudovirus neutralization in [7] is over 50 µg/mL; in [8], over 50 µg/mL; in [9] it was 8.75 µg/mL.
With 10E8v4 VL Y32F (antibody), the IC50, pseudovirus neutralization in assay [1] was 0.017 µg/mL; in [2] it was 0.08 µg/mL; in assay [3], 3.2 µg/mL; in [4] it was over 50 µg/mL; in [5], 2.25 µg/mL; in [6] it was 0.031 µg/mL. For the same substance, the values for the IC50, pseudovirus neutralization in assay [7], in assay [8] and in [9] were 2 µg/mL, over 50 µg/mL and 0.102 µg/mL, respectively.
Regarding 10E8v4 VL Y32W (antibody), the IC50, pseudovirus neutralization in assay [1] is 0.005 µg/mL; in [2] it was 0.055 µg/mL; in assay [3] it was 0.719 µg/mL; in assay [4], over 50 µg/mL; in [5], 1.4 µg/mL; in assay [6], 0.029 µg/mL. For the same substance, the IC50, pseudovirus neutralization was 1.07 µg/mL in [7], over 50 µg/mL in assay [8] and 0.089 µg/mL in assay [9].
With 10E8v4 VL Y32Q (antibody), the IC50, pseudovirus neutralization in assay [1] was 0.281 µg/mL; in assay [2], over 50 µg/mL; in assay [3], over 50 µg/mL; in assay [4], over 50 µg/mL; in [5], over 50 µg/mL; in assay [6] it was 11.5 µg/mL. In addition, the IC50, pseudovirus neutralization in assay [7], in assay [8] and in [9] was over 50 µg/mL in each case.
As for 10E8v4 VL Y32K (antibody), the IC50, pseudovirus neutralization is 0.359 µg/mL in assay [1]; over 50 µg/mL in assay [2]; over 50 µg/mL in assay [3]; over 50 µg/mL in assay [4]; over 50 µg/mL in assay [5]; 10.2 µg/mL in [6]. Moreover, the values for the IC50, pseudovirus neutralization in [7], in assay [8] and in [9] were over 50 µg/mL, over 50 µg/mL and 33 µg/mL, respectively.
On to 10E8v4 VL Y32D (antibody), for which the IC50, pseudovirus neutralization in assay [1] is 1.55 µg/mL; in [2], over 50 µg/mL; in assay [3], over 50 µg/mL; in [4], over 50 µg/mL; in assay [5], over 50 µg/mL; in assay [6], over 50 µg/mL. For the same substance, the IC50, pseudovirus neutralization in assay [7], in assay [8] and in assay [9] was over 50 µg/mL in each case.
For 10E8 antibody, the IC50, pseudovirus neutralization is 1.19 µg/mL and 0.995 µg/mL in [3]; over 50 µg/mL in assay [4]; 2.09 µg/mL and 0.997 µg/mL in assay [5]; 0.032 µg/mL and 0.023 µg/mL in assay [6]; over 50 µg/mL in assay [8].
